To fix the notation:
T1: chimera protein of the VP16 transcription activating region and the bHLH-PAS region part of Clock (human, UniProt O15516 1-530)
T1 construct: domain: bHLH-PAS region part; also called VP16-Clock; pVP16-Clock (bHLH-PAS) product
T1 sequence: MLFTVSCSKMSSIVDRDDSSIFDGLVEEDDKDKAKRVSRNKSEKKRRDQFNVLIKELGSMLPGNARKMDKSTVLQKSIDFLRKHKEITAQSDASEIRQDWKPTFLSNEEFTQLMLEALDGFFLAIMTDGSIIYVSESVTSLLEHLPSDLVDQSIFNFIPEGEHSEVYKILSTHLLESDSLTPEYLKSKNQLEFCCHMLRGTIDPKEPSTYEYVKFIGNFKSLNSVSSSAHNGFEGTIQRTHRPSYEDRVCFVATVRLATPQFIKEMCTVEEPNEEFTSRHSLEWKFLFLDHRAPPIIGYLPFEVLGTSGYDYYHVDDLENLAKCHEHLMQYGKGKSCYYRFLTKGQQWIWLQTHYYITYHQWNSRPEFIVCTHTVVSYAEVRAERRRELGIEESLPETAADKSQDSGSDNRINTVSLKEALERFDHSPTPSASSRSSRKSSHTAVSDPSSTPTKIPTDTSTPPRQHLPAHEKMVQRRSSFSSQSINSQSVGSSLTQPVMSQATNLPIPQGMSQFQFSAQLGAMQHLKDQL

T2: chimera protein of the VP16 transcription activating region and the bHLH-PAS region part of Sim2 (human, UniProt Q14190 1-500)
T2 construct: domain: bHLH-PAS region part; also called VP16-Sim2; pVP16-Sim2 (bHLH-PAS) product
T2 sequence: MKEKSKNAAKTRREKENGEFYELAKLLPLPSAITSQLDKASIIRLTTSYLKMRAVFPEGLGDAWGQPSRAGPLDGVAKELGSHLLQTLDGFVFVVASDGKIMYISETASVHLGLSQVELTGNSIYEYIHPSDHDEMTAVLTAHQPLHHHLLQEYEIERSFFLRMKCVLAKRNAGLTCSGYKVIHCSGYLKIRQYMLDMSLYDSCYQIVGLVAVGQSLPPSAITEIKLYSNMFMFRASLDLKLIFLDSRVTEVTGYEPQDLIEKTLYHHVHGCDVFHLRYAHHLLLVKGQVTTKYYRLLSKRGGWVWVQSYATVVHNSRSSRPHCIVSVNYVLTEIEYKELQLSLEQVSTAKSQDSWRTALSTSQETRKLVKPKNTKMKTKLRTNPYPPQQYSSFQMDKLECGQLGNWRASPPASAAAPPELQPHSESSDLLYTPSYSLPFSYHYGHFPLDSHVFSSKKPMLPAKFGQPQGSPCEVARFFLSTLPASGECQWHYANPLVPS

B1: chimera protein of the VP16 transcription activating region and the bHLH-PAS region part of the present transcription activating factor (mNXF) (other)
chain: MYRSTKGASKARRDQINAEIRNLKELLPLAEADKVRLSYLHIMSLACIYTRKGVFFAGGTPLAGPTGLLSAQELEDIVAALPGFLLVFTAEGKLLYLSESVSEHLGHSMVDLVAQGDSIYDIIDPADHLTVRQQLTMPSALDADRLFRCRFNTSKSLRRQSSGNKLVLIRGRFHAHPPGAYWAGNPVFTAFCAPLEPRPRPGPGPGPGPGPASLFLAMFQSRHAKDLALLDVSESVLIYLGFERSELLCKSWYGLLHPEDLAQASSQHYRLLAESGDIQAEMVVRLQAKHGGWTWIYCMLYSEGPEGPFTANNYPISDT
notes: also called VP16-NXF; pVP16-NXF (bHLH-PAS) product
B2: chimera protein of the DNA-binding region of GAL4 and the bHLH-PAS region part of the present transcription regulatory factor (mNXF) (other)
chain: MKLLSSIEQACDICRLKKLKCSKEKPKCAKCLKNNWECRYSPKTKRSPLTRAHLTEVESRLERLEQLFLLIFPREDLDMILKMDSLQDIKALLTGLFVQDNVNKDAVTDRLASVETDMPLTLRQHRISATSSSEESSNKGQRQLTVSMYRSTKGASKARRDQINAEIRNLKELLPLAEADKVRLSYLHIMSLACIYTRKGVFFAGGTPLAGPTGLLSAQELEDIVAALPGFLLVFTAEGKLLYLSESVSEHLGHSMVDLVAQGDSIYDIIDPADHLTVRQQLTMPSALDADRLFRCRFNTSKSLRRQSSGNKLVLIRGRFHAHPPGAYWAGNPVFTAFCAPLEPRPRPGPGPGPGPGPASLFLAMFQSRHAKDLALLDVSESVLIYLGFERSELLCKSWYGLLHPEDLAQASSQHYRLLAESGDIQAEMVVRLQAKHGGWTWIYCMLYSEGPEGPFTANNYPISDT
notes: Expressed in HeLa cells for the two-hybrid assay; also called Gal4-mNXF; Gal4-NXF

Assay [1] concerns the target B2. Put plainly: mammalian two-hybrid assay in HeLa cells (Gal4-NXF + VP16-NXF, luciferase reporter). In general terms: Reporter assays use an easily measured gene product as a stand-in for the process of interest.
For assay [2], the target named is T1, chimera protein of the VP16 …. Kind of assay: mammalian two-hybrid assay in HeLa cells (Gal4-NXF + VP16-X, luciferase reporter).
The target of assay [3] is T2, chimera protein of the VP16 …. The assay is described as above.

For the molecule B1, the binding result in assay [1] was “no binding”.
For the molecule B2, the binding result in assay [2] and in assay [3] was “no binding” throughout.

These data come from patent US20060216705A1 (SUMITOMO CHEMICAL, published 2006).
